Earlier results in paper PMC4113456, “Atypical Signaling and Functional Desensitization Response of MAS Receptor to Peptide Ligands” (PLoS ONE, 2014).

Target: T1, MAS (Homo sapiens, UniProt P04201)
T1 construct: expressed in transfected cells
T1 sequence (P04201 1-325): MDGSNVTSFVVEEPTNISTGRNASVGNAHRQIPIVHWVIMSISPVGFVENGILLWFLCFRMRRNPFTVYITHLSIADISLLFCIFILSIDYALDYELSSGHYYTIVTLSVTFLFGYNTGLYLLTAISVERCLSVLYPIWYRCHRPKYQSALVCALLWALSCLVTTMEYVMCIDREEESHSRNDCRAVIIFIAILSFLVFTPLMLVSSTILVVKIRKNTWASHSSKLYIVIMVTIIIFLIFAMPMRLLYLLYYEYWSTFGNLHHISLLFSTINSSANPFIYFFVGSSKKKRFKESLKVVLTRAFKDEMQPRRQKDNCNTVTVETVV
Design: method as in ref [4] (a number printed in a supplementary file, which may have a reference list of its own: not looked up in the article's list)
Conditions: ref [4]; cited from earlier work

## Angioprotectin: physiological ligand, sequence PEVYIHPF
  Effect in aortic rings: Vasodilator effect in aortic rings
